Test results: patent US6767991 (Boehringer Ingelheim, dated 2004)
Where two headings read alike, the source gives them in different places. *1 amine or outer side, *2 acyl side, *3 side chain or, on linkers, in order; H or OH if unused. Primed or numbered codes have the meaning given here. Where no end group is shown, it is not given here. [ ]: non-standard residue; d: D form. Pro((4-tert-butyl-phenyl)-methoxy) = Pro(4-R13), R13 = (4-tert-butyl-phenyl)-methoxy; Hyp(4-Bn) = 4(R)-benzyloxyproline, O=C([C@@H]1C[C@@H](OCc2ccccc2)CN1[*:1])[*:2]; Pro(1-NpCH2O)″ = Pro(4-R13), R13 = naphthalen-1-ylmethoxy; Pro(2-NpCH2O)″ = Pro(4-R13), R13 = naphthalen-2-ylmethoxy; Glutaryl = O=C(CCCC(=O)[*:2])[*:1]; Pro(4-OBn) = Pro(4-R13), R13 = OBn; Pro(O-Bn) = Pro(4-R13), R13 = O-Bn; NMeI = CC[C@H](C)[C@H](NC)C(=O)O; Pro(Bn) = Pro(4-R13), R13 = Bn; AllylGly = C=CC[C@H](N)C(=O)O; Chg = N[C@H](C(=O)O)C1CCCCC1; Suc = O=C(CCC(=O)[*:2])[*:1]; Tle = CC(C)(C)[C@H](N)C(=O)O; code B = not defined here; Ac5c = NC1(C(=O)O)CCCC1; Acca = not defined here; Nva = CCC[C@H](N)C(=O)O; Abu = CC[C@H](N)C(=O)O; Acc = not defined here; Ac3c = NC1(C(=O)O)CC1

B1: Compound 102 (Table 1): Ac-Glu-Asp-Ile-Val-Pro-Cys (peptide)
peptide: Ac-EDIVPC
B2: Compound 125 (Table 1): Ac-Asp-Asp-Ile-Val-Pro-Acpe (peptide)
peptide: Ac-DDIVP[Ac5c]
B3: Compound 201 (Table 2): Ac-Asp-Asp-Ile-Val-Pro(O-Bn)-Nva (peptide)
peptide: Ac-DDIV[Pro(O-Bn)][Nva]
B4: Compound 208 (Table 2): Ac-Asp-Asp-Ile-Val-Pro(2-NpCH2O)-Nva (peptide)
peptide: Ac-DDIV[Pro(2-NpCH2O)″][Nva]
B5: Compound 119 (Table 1): Ac-Asp-Asp-Ile-Val-Ile-Cys (peptide)
peptide: Ac-DDIVIC
B6: Compound 405 (Table 4): B HOOC-CH2CH2-N(Me)C(O)-; R4 cyclohexyl; P3 Val; R13 1-NpCH2O; P1 Acca (peptide)
peptide: {HOOC‑CH2CH2‑N(Me)C(O)‑CH2‑CH(cyclohexyl)‑C(O)}-Val-[Pro(4-(1-NpCH2O))]-[Ac3c]
B7: Compound 124 (Table 1): Ac-Asp-Asp-Ile-Val-Pro-AlGly (peptide)
peptide: Ac-DDIVP[AllylGly]
B8: Compound 221 (Table 2): DAD-Ile-Val-Pro(1-NpCH2O)-Nva (peptide)
peptide: Suc-IV[Pro(4-(1-NpCH2O))][Nva]
B9: Compound 262 (Table 2): Ac-Ile-Val-Pro(1-NpCH2O)-Acca (peptide)
peptide: Ac-IVP[Ac3c]
modifications: not fully specified (residue 3); printed as Ac-Ile-Val-Pro(1-NpCH2O)-Acca
B10: Compound 304 (Table 3): Ac-Chg-Val-W-Acc, W drawn (peptide)
peptide: Ac-[Chg]VX[Acc]
modifications: not fully specified (residue 3); printed as Ac-Chg-Val-W-Acc; also: further groups not given here
B11: Compound 105 (Table 1): Ac-Asp-D-Glu-Ile-Val-Pro-Cys (peptide)
peptide: Ac-D[dE]IVPC
B12: Compound 108 (Table 1): Ac-Asp-Tbg-Ile-Val-Pro-Cys (peptide)
peptide: Ac-D[Tle]IVPC
B13: Compound 406 (Table 4): B MeOOC-CH2-CH2-N(Me)c(O)-; R4 cyclohexyl; P3 Val; R13 1-NpCH2O; P1 Acca (peptide)
peptide: {MeOOC‑CH2‑CH2‑N(Me)c(O)‑CH2‑CH(cyclohexyl)‑C(O)}-Val-[Pro(4-(1-NpCH2O))]-[Ac3c]
B14: Compound 260 (Table 2): Ac-Asp-D-Glu-Ile-Val-Pro(O-Bn)-Cys (peptide)
peptide: Ac-D[dE]IV[Pro(4-OBn)]C
B15: Compound 217 (Table 2): Ac-Asp-Asp-Ile-Val-Pro(Ph(CH2)3)-Nva (peptide)
peptide: Ac-DDIV[Pro(4-(Ph(CH2)3))][Nva]
B16: Compound 223 (Table 2): B-Ile-Val-Pro(1-NpCH2O)-Nva, B drawn (peptide)
peptide: {code B}-IV[Pro(4-(1-NpCH2O))][Nva]
modifications: reading uncertain; also: further groups not given here, printed as B-Ile-Val-Pro(1-NpCH2O)-Nva
B17: Compound 230 (Table 2): Ac-Asp-Asp-Ile-Val-Pro(Ph(CH2)3)-Nva (peptide)
peptide: Ac-DDIV[Pro(4-(Ph(CH2)3))][Nva]
B18: Compound 130 (Table 1): DAD-Asp-Ile-Val-Pro-Nva (peptide)
peptide: Suc-DIVP[Nva]
B19: Compound 209 (Table 2): Ac-Asp-Asp-Ile-Val-Pro((4-tert-butyl-phenyl)-methoxy)-Nva (peptide)
peptide: Ac-DDIV[Pro((4-tert-butyl-phenyl)-methoxy)][Nva]
B20: Compound 407 (Table 4): B HOOC-CH2CH2-N(Me)2-C(O)-; R4 cyclohexyl; P3 Val; R13 1-NpCH2O; P1 Acca (peptide)
peptide: {HOOC‑CH2CH2‑N(Me)2‑C(O)‑CH2‑CH(cyclohexyl)‑C(O)}-Val-[Pro(4-(1-NpCH2O))]-[Ac3c]
B21: Compound 411 (Table 4): B [HOOC-(CH2)2]2-NH-CH2-; R4 cyclohexyl; P3 Val; R13 1-NpCH2O; P1 Acca (peptide)
peptide: {(HOOC-(CH2)2)2‑NH‑CH2‑CH2‑CH(cyclohexyl)‑C(O)}-Val-[Pro(4-(1-NpCH2O))]-[Ac3c]
B22: Compound 126 (Table 1): Ac-Asp-Asp-Ile-Val-Pro-Acca (peptide)
peptide: Ac-DDIVP[Ac3c]
B23: Compound 131 (Table 1): Ac-Asp-Glu-Chg-Glu-Glu-Cys (peptide)
peptide: Ac-DE[Chg]EEC
B24: Compound 261 (Table 2): Ac-Chg-Val-Pro(O-Bn)-Cys (peptide)
peptide: Ac-[Chg]VPC
modifications: not fully specified (residue 3); printed as Ac-Chg-Val-Pro(O-Bn)-Cys
B25: Compound 408 (Table 4): B MeOOC-(CH2)2-N(Me)2-C(O)-; R4 cyclohexyl; P3 Val; R13 1-NpCH2O; P1 Acca (peptide)
peptide: {MeOOC‑(CH2)2‑N(Me)2‑C(O)‑CH2‑CH(cyclohexyl)‑C(O)}-Val-[Pro(4-(1-NpCH2O))]-[Ac3c]
B26: Compound 412 (Table 4): B [HOOC-CH2]2-NC(O)-; R4 cyclohexyl; P3 Val; R13 1-NpCH2O; P1 Acca (peptide)
peptide: {(HOOC-CH2)2‑NC(O)‑CH2‑CH(cyclohexyl)‑C(O)}-Val-[Pro(4-(1-NpCH2O))]-[Ac3c]
B27: Compound 220 (Table 2): DAD-N(Me)Ile-Val-Pro(1-NpCH2O)-Nva (peptide)
peptide: Suc-[NMeI]V[Pro(4-(1-NpCH2O))][Nva]
B28: Compound 101 (Table 1): Ac-Asp-Asp-Ile-Val-Pro-Cys (peptide)
peptide: Ac-DDIVPC
B29: Compound 410 (Table 4): B EtOOC-CH-N(Me)2-C(O)-; R4 cyclohexyl; P3 Val; R13 1-NpCH2O; P1 Acca (peptide)
peptide: {EtOOC‑CH‑N(Me)2‑C(O)‑CH2‑CH(cyclohexyl)‑C(O)}-Val-[Pro(4-(1-NpCH2O))]-[Ac3c]
B30: Compound 274 (Table 2): Ac-Asp-D-Val-Ile-Val-Pro(R13 = H)-Cys (peptide)
peptide: Ac-D[dV]IVPC
B31: Compound 122 (Table 1): Ac-Asp-Asp-Ile-Val-Pro-Abu (peptide)
peptide: Ac-DDIVP[Abu]
B32: Compound 224 (Table 2): B-Ile-Val-Pro(1-NpCH2O)-Nva, B drawn (peptide)
peptide: {code B}-IV[Pro(4-(1-NpCH2O))][Nva]
modifications: reading uncertain; also: further groups not given here, printed as B-Ile-Val-Pro(1-NpCH2O)-Nva
B33: Compound 219 (Table 2): Ac-Asp-Ile-Val-Pro(1-NpCH2O)-Nva (peptide)
peptide: Ac-DIV[Pro(4-(1-NpCH2O))][Nva]
B34: Compound 111 (Table 1): Ac-Asp-Asp-Tbg-Val-Pro-Cys (peptide)
peptide: Ac-DD[Tle]VPC
B35: Compound 413 (Table 4): B [HOOC-(CH2)2]2-NC(O)-; R4 cyclohexyl; P3 Val; R13 1-NpCH2O; P1 Acca (peptide)
peptide: {(HOOC-(CH2)2)2‑NC(O)‑CH2‑CH(cyclohexyl)‑C(O)}-Val-[Pro(4-(1-NpCH2O))]-[Ac3c]
B36: Compound 225 (Table 2): Ac-Ile-Val-Pro(1-NpCH2O)-Nva (peptide)
peptide: Ac-IVP[Nva]
modifications: not fully specified (residue 3); printed as Ac-Ile-Val-Pro(1-NpCH2O)-Nva
B37: Compound 409 (Table 4): B HOOC-CH2-N(Me)-C(O)-; R4 cyclohexyl; P3 Val; R13 1-NpCH2O; P1 Acca (peptide)
peptide: {HOOC‑CH2‑N(Me)‑C(O)‑CH2‑CH(cyclohexyl)‑C(O)}-Val-[Pro(4-(1-NpCH2O))]-[Ac3c]
B38: Compound 121 (Table 1): Ac-Asp-Asp-Ile-Val-Hyp(4-Bn)-Cys (peptide)
peptide: Ac-DDIV[Hyp(4-Bn)]C
B39: Compound 237 (Table 2): DAE-Ile-Val-Pro(1-NpCH2O)-Acca (peptide)
peptide: Glutaryl-IVP[Ac3c]
modifications: not fully specified (residue 3); printed as DAE-Ile-Val-Pro(1-NpCH2O)-Acca
B40: Compound 207 (Table 2): Ac-Asp-Asp-Ile-Val-Pro(1-NpCH2O)-Nva (peptide)
peptide: Ac-DDIV[Pro(1-NpCH2O)″][Nva]
B41: Compound 133 (Table 1): Ac-Asp-Glu-Chg-Val-Glu(OBn)-Acca (peptide)
peptide: Ac-DE[Chg]V[Glu(OBn)][Acca]
modifications: reading uncertain; also: printed as Ac-Asp-Glu-Chg-Val-Glu(OBn)-Acca
B42: Compound 104 (Table 1): Ac-Asp-D-Asp-Ile-Val-Pro-Cys (peptide)
peptide: Ac-D[dD]IVPC
B43: Compound 222 (Table 2): DAE-Ile-Val-Pro(1-NpCH2O)-Nva (peptide)
peptide: Glutaryl-IV[Pro(4-(1-NpCH2O))][Nva]
B44: Compound 216 (Table 2): Ac-Asp-Asp-Ile-Val-Pro(Bn)-Nva (peptide)
peptide: Ac-DDIV[Pro(Bn)][Nva]
B45: Compound 273 (Table 2): Ac-Asp-Asp-Ile-Val-Pro(R13 = H)-Nva (peptide)
peptide: Ac-DDIVP[Nva]
B46: Compound 103 (Table 1): DAD-Asp-Ile-Val-Pro-Cys (peptide)
peptide: Suc-DIVPC

Assays:
Experiment in all cases: cell-based or functional assay
[1] = molecular target: T1, recombinant NS3 protease with the NS4A peptide cofactor … (molar ratio enzyme:cofactor 1:100) (hepatitis C virus genotype 1b)
[2] = molecular target: T1, recombinant NS3 protease with the NS4A …; remark: listed apart in the source
[3] = molecular target: T1, recombinant NS3 protease with the NS4A …; remark: listed apart in the source
[4] = molecular target: T1, recombinant NS3 protease with the NS4A …; remark: listed apart in the source

Binder | IC50 [1] [µM] | IC50 [2] [µM] | other results
B1 | 59 |  | 
B2 | 210 |  | 
B3 |  | 7.2 | 
B4 |  | 0.71 | 
B5 | 90 |  | 
B6 |  |  | IC50 [3]: 1.6 µM
B7 | 210 |  | 
B8 |  | 22 | 
B9 |  | 40 | 
B10 |  |  | IC50 [4]: 1.1 µM
B11 | 1.5 |  | 
B12 | 31 |  | 
B13 |  |  | IC50 [3]: 25 µM
B14 |  | 0.18 | 
B15 |  | 3 | 
B16 |  | 51 | 
B17 |  | 3.3 | 
B18 | 123 |  | 
B19 |  | 2.6 | 
B20 |  |  | IC50 [3]: 1.5 µM
B21 |  |  | IC50 [3]: 0.36 µM
B22 | 45 |  | 
B23 | 24 |  | 

Binder | IC50 [1] [µM] | IC50 [2] [µM] | other results
B24 |  | 28 | 
B25 |  |  | IC50 [3]: 11 µM
B26 |  |  | IC50 [3]: 0.8 µM
B27 |  | 31 | 
B28 | 46 |  | 
B29 |  |  | IC50 [3]: 32 µM
B30 |  | 7.6 | 
B31 | 315 |  | 
B32 |  | 56 | 
B33 |  | 2.3 | 
B34 | 79 |  | 
B35 |  |  | IC50 [3]: 0.12 µM
B36 |  | 45 | 
B37 |  |  | IC50 [3]: 24 µM
B38 | 1.7 |  | 
B39 |  | 5.5 | 
B40 |  | 0.39 | 
B41 | 39 |  | 
B42 | 8.5 |  | 
B43 |  | 20 | 
B44 |  | 60 | 
B45 |  | 17.5 | 
B46 | 26 |  | 
